Measured values: the domain aggregation screens of Martell et al. (2025)

Experiment: soluble fraction after stress (log2 fold change); higher = more stays soluble; pooled small domains, quantitative proteomics
Conditions: stress: 50 degC
In short: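 The stress applied to every library was 50°C. These custom libraries of small protein domains were pooled and measured at high throughput with quantitative proteomics as the read-out. Aggregation propensity is expressed as the base-two logarithm of the fold change in how much of each protein remains soluble. The higher the value, the more of that protein stays in solution.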

Sequence	soluble fraction (log2)
HMTQSGLTQWEFNMLRQALIEMLGEKPGSVFELARLLPLEQEKNVQALRFLLDHDDQFHLKDEYISFVKRT	-1.92
HMKLSKLTKPELDEIFRNANFTEEEEKVFWLLARGKSLEQISAKTFLPIATVNRRVKSIKDKIG	0.0605
HMRQSDIAAAFRESILRSSKGFQYLHTRDFVTALRRRGIHLSEVEANSWIAREKTYFVDSALDHSENRLWI	-1.6
HMKDYKTIFQELIQKKHKTSPIYKSYEYNDMFKAEVYVNDKSFADGIGKSKKEAETDAAKKALEKIEMA	0.0966
HMAQLSDDEQAIIDTITRRGDATMSELIASVNVSTPRLMSMLIDMEFRSLITALPGGRYQIRLIN	-0.912
HMDIGKNIQTIRYANKLTQDQVIAKLNLMGISMSKSTYAKLETNRMNIKVSELVALAKIFHTDINAF	-2.43
HMAAEGARNNSLFNSLRERALEVSSHNELEQIAFKMNETNIPPLRASEVISVVNSVWKNRISNQIIP	0.155
HMEIGNVIAKLRVSNGLNQREFAKKLEVSNGAVAMWETNKRQPDLEMIKKISNLFDVPTDYILGAGTFQ	-0.458
HMNNESEGAIMLRQYSSLSAYLTKYNIDVNSKKAQQYASSLKLAQEKGSAEGQKYLSSISSELDD	-0.158
HMGNVRSWKGWTSAGGTRVQMRQGDSINSMARRYGVPIQAIVAVNGIDDPAKVQPGQSVIIPTYVY	0.0448
HMGVMTGAEFVGNTVASVERNLIIDTLKHTMGNRTTAANILGISIRTLRNKLKQYQNEGFDIPE	-0.703
HMKSTPMYATAIVNIRSKAGTDSEILGKLNPSEEISVISSENGWSKVSYNGKEAYISSNYLSNAKP	-0.175
HMGWEPTPVLVAARDISGGTVLDQDMLRVEAIPSRLVTPSIVRSDLLASVQDAKLLLPMKQGDLLNFNMLQ	-0.064
HMIMNLNVLANNVRRLRTAQRLSQSALASKAGLSVPAIKNLENARNEPRVNTVQVIAHALEVRLQDLFAPT	-1.62
HMKDVVAPMSGRVVRLMVAAGDEVVKRQALVVVEAMKMENVLTAPKEGRIKKVPVREGMTVEVGQTLVSFE	-0.221
HMAVSSYSVKRYIRNMIQAEDPSAPFSDEALRLALLAHGIAVSRRVVTKYRMAMDIPSSSQRRKR	-0.866
HMKNINTNIGKNLKRIRKLRGLTIDALATSSGVSKSMISEIERGIRNPSITIIWSLANALKTPLNYFLKE	-0.115
HMATHWHITPNPNNGKFLISGLMQDDSFHLMDASGQWLRQLRTVNQELDLDLQPGVYFLKDNSGSVMKFVV	-0.98
HMGPASTGAHQLGLKPGDEVTHRAWGEGVVTSTTGEGDRAEAVVDFDAVGEKRLLLAWAPLER	0.00864
HMDTPMQEAVLQRLRDKVAQAAAGSKLPTVRQLIADYGVGQHVIQAALEKLRTEGLITSHVGKGTFVG	0.447
HMDQVYYDLKSLIELLPADQMEVLKMRYFEELSFKKIAQKIDVSINTALGRMRYALINLRALSKKHHID	-0.189
HMNESPVLAVLTPTERKVASLVAEGLTNQAIAARMILAEGTVKNHVSTLLHKLQAPDRTALALTLYKAFQ	-0.469
HMTKKEFLDILTESLAGNVPASEIEENIRYYKDYIENGEESEEKALEQLGDPHLIARTIIDSFIA	-0.127
HMIFRPALITDLDAVERHYTELLTREAETGRSSTNWSLGVYPTRQTATAAQAAGTLWVLEREGQVVASVI	-0.245
HMTKLLSALQADKFAKKLANDTNFGSNFARMGESAMDFTNRLVEELQRDEGKVANYMPYLTKLGF	0.312

Sequence	soluble fraction (log2)
HMVEREYRLEVPPEAEGKRLDQFLVNQPVQLSRSQVQHLIQNGLVLVNAKTRRSSYRVHTGDIIEMQVPA	0.327
HMAGGVFELTGKVTADAKAGDLVYVKAATGAGTKPVVTTVKTGADVIIGWLKEPVSSASVDQKMQVVLA	0.147
HMHDLDALTGLSGEARSKVYEEGSVFVAGEMWSAKSDAVIPAGSSIRVVRREGFILVVEKDS	-1.12
HMSTFAQNLRALMEKRGVSQNELARSAGLTQSAINKILTGKTKQPGIDTTEAIARVLNVSVAQLIYT	-0.303
HMIGPYAAAKLMTNKDFVKWLSGGVEKSVFNPNSFGQHIRRLVQISEVNPDIRDEINAVVQGLTQ	-0.361
HMNREIVVYITGAVDNPGLYRLPLDSRLDDVLKLAVLSTNADREVLNPAQKLKDGQKIVVPYIVE	-0.111
HMLLPGEELRVMIIQEGKEYGQGVGYLDDGTMVVVEDGQRALNRTENVVVTKVLQTTAGRMIFAK	-0.631
HMPSGLFEPIKKSELSIESIDLLKDQIRAFKQADIRITFGFLLDLITKGENPAYVNASKLFEQAWER	0.0685
HMGTRIQAVMEDIQSRIAARTYLPGTRLPSVRAQAQAMQVSVSTVVEAYERLAAEGVIASRPGSGFYVAGP	-1.44
HMIEYYDDEELDVFKGRQSDNYTNKEIEQFAEVLHTMRQDEVKGWNRSLILRSINLPDSLKDEVIMLI	-0.672
HMAPRQDIAYYTVKPGDTVLAIAEKFGLQPETLMWSNSIIEQNPDRLSIGDELRILPVDGVLHVVK	0.0612
HMSMPEVLSDRELEIFRMIGTGMSTGDIAKKLNISVNTIESHRKKIKDKLGIQKGSELVKAAVQWVSTQQ	-0.262
HMGPLTMGQRIVRLRTQAGLSQDALAEQLGVSRQSVSKWETDGSVPDLDRLVKLSKVFGVTLDELVKG	-0.024
HMSEYEYALHEFGITKKQSQRIFDRLSIADLEERINAIQTTLKQRSDIDNPAAYAWTVLNAE	-0.207
HMKLTTRQTEIINIVKAEQPISGEKIAQNLGLSRATLRNDLSILTMTGLLDAKPKVGYFYTGQ	-0.447
HMLDSDARRRGLIEYLSLNGYATMRQLAGEFDVSINTIQRDITYLARYYPLETAYGRYGGGVYFEQNWQ	-1.56
HMKNTYTVVSGDTLWGIASRKLGGGSNWTKIYDANAATIESVANRRRGGRGSDHGHWIYPGTVLTI	-0.0158
HMTIATLGERIRKLRKERGLTLAELAGDKLSKGMLSLIENNRAKPSMESLEYIAKRLGVEPAELLE	0.176
HMRTSPGADYEKTYYTIQSGDNLGAIAEKMGVSVADLKDWNDISGTKIYAGKKLVIYVKKGST	0.183
HMHGEAVVVPNVKGLPMRQAENEIYKQSLKAVAIDSSYVKGMPPGAILEQNPAGGSKVKKGRTVYLTINMD	-0.0918
HMTKQRSAIMNLLAERNTPLTAEEIGEAIAPSYPKLALSTVYRNLELFTNAGLLEKSFFQDGITRYSLTK	-0.429
HMTVDIADALRVLGLSDAPDWSDVRAAHRRAIVRTHPDAGGSAGDAARVNQAFDLLRKISGNGERPIPG	0.154
HMTYQTVRYGSTGSAVRQLQSALNQKGYQLSEDGIFGAKTRAAVRDYQKKNGLLLDGIAGSQTWNHLMS	0.224
HMANTVVMPNLLGKTMTEAKIELKELGIDITLKGSESSSKYSAGQIMEQNIAEGTKVEVGSSVEVTIAGS	-0.306
HMQFQVHEIKGKEYYIHVVEKGNTLYAISRMYSVPIETLKEENPRLNTTELTIGDRLLIPLDEVKRKNIE	-0.128

Sequence	soluble fraction (log2)
HMFTIGENIRDLRLERAITQEQLAEQLNVSAPAVSKWERGEAYPDITLVPKLAEILGVSTDKLFGVD	-0.0643
HMVSQKPKERELWFREQLELAGLRLDPHAISAINETLGNDTGRFPGIIDTLLSTYGAGKKLSYDDVVMFL	-0.477
HMHAGQIISQKIKESGISISHVAKHLKVQRATLYNLFEREVWPAHRLRTIEALLHIDLSDLYP	-1.62
HMDFSSRLKDERKRLKLSQAQLGEAGGVSKDAQLNYENGSRSPSASYLELIAREGVDVQFLLTGKRS	0.0732
HMTRETTQAWWEARQTLPSGEQRSAASLSQEASHVRRFYRWAMQQGLTDRNPADWLPDVRQK	-0.232
HMPKAPHETLSRREMEVLLLLSEGVTLTRIGDTIHVSVKTVSTYRARILQKLDLQSNAELTRYVLQHKL	-3.38
HMNSYKGELLVDDKNIRLDLYLFNQFNFFSRTKIKNYILKGNVLVNNNKTSPSYILKGSEKIYYDFSVS	-1.2
HMHLTRYLHTMIRAANLDDTLDFFVEKLGLIEAYRYSNEAGRFTLVFLSAPDDLESAQSRQAPLVEITYN	-0.107
HMGPTLTDEEEVVLNLLEKNHPVLLSELKENAGLSNKKWDKAIKGLSAHKLAKVTKTDDGLFVHLS	0.0395
HMAEEFESMTEARRLELARLVDSRGFVRVTDAAEELGVSDVTIRGDLSELERRGLLTRVHGGAMPVT	0.0215
HMAKLTPDQQELRAIRIELQMSQPDFADAININVPRLSSYEYGRTAGVPTSIMEAARELKRSMSR	-0.811
HMSENMSQDLAQWYRLQQALHPNLDAPELWATDLTSQQRTVRDQLIQQWAQEKRDSLWSEISGD	0.0433
HMQAATGVVTASVLNIRQGPGTNYTKVGSLLKGAQVEIVGQNGAWSKIRLKSGITGWVNSSYLKTST	-0.0664
HMESDRVAHVVAPGETLFSISGKYGIGMGELVAANPVLESRPPRTGDTLLIRLPENPLPAETDAETLS	0.121
HMAIELIDLIKNPETAPFSKLKYLKWMPEAEVTGFFNNLFQLNVTARETGDWSTVDKFLEDEGDRIAAQVA	-0.138
HMVIANADVRAKFSKGKDSFVKYYFKEKVLKDGFTEEVKNNIVQALFYLQIVTRIDGESGVLIIDY	-0.0492
HMVSSVAAISQMIDEKDRYTSEHSHRVAEYARLIGAHMGFAGEELDSLYRSALLHDIGKIAVPDAILNK	-0.338
HMDLRAPKPIKEMGEEYIKLYQYLRKGESENIVMSKMNISLDDYDYMRSEIEDKLSLYNMLDLLRKP	-0.718
HMNAESLIGDRAVVTVAIERNKRGRVDVTGQDWAATTRDGEEIKVGQEVLVVGISGVALIVEER	-0.426
HMERLKRVTLSLNQSNYSVTEIARRLQAITGIKDITVVEDEQAVYLKVDPATFDLTLAQQAV	-0.218
HMSGNPLDTYYSKWSAEIKKGSPNAVISKEGDKYYVSIPGENRMAIIYENPHLIRMVNATRNIHVE	-0.168
HMKNLSQAEFMYLFKILAFGSTDPDNHPEMAATGMEIAKMLQGLLLSGNVLADILRKNQNVQFWL	-0.204
HMEEIALTDILNRFLSSLSLEQRKIFMRRYWYLSPIKEIATEYGMSESKIKMSLFRSRNELKKLLEKEGI	-0.396
HMPGRKKLAIIYKNDYIGAFNLADSYRDSYEVSMYAFPKKVGKLLNRLELQGFNAYVIYDKDNEENNFNTI	-1.65
HMLESPVEAIIRQIKQLITNGKLKPGDRLPAERLLAENFGVGRGYVREAIMKLEFFGLLKTSPQSGTYVAG	-0.748
